The text below walks through data of publication PMC8324060 (Science Advances, 2021).

The target in assay [1] is Human MLH1 C-terminal domain (amino acids 486 to 756) (human) (UniProt P40692). In words: ITC. A general note: ITC needs no label: the signal is the heat of the interaction.
Assay [2] has as its target recombinant MutLα (MLH1-PMS2) (human, UniProt P40692;P54278). In words: pull-down.

Sequence of Human MLH1 C-terminal domain (amino acids 486 to 756) (human) (P40692 486-756): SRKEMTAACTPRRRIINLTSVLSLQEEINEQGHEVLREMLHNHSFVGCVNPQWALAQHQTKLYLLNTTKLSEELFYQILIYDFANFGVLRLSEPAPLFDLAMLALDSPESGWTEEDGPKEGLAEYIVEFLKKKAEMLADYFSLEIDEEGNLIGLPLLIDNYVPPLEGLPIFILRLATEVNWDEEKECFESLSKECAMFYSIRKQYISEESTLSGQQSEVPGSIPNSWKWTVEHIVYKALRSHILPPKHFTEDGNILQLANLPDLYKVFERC
Sequence of recombinant MutLα (MLH1-PMS2) (P40692 whole entry, chain 1 of 2): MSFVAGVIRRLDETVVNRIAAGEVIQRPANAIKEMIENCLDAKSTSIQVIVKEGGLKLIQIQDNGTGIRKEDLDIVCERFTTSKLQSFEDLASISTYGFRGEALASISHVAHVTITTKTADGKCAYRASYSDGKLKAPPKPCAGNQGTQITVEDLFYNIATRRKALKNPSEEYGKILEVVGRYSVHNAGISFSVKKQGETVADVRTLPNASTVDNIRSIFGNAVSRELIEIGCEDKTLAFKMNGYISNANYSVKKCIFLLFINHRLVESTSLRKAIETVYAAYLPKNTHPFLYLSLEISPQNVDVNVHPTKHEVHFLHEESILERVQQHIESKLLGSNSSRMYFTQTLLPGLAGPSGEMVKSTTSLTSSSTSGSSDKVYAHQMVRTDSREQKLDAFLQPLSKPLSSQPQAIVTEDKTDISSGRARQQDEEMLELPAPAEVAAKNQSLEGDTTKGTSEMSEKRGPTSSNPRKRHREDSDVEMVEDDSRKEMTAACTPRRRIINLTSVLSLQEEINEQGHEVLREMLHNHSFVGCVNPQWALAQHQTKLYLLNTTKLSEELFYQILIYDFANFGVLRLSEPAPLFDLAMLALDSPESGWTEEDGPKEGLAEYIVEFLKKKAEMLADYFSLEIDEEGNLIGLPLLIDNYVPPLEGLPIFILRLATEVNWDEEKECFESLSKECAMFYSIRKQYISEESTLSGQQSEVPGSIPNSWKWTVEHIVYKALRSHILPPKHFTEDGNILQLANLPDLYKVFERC
Sequence of recombinant MutLα (MLH1-PMS2) (P54278 whole entry, chain 2 of 2): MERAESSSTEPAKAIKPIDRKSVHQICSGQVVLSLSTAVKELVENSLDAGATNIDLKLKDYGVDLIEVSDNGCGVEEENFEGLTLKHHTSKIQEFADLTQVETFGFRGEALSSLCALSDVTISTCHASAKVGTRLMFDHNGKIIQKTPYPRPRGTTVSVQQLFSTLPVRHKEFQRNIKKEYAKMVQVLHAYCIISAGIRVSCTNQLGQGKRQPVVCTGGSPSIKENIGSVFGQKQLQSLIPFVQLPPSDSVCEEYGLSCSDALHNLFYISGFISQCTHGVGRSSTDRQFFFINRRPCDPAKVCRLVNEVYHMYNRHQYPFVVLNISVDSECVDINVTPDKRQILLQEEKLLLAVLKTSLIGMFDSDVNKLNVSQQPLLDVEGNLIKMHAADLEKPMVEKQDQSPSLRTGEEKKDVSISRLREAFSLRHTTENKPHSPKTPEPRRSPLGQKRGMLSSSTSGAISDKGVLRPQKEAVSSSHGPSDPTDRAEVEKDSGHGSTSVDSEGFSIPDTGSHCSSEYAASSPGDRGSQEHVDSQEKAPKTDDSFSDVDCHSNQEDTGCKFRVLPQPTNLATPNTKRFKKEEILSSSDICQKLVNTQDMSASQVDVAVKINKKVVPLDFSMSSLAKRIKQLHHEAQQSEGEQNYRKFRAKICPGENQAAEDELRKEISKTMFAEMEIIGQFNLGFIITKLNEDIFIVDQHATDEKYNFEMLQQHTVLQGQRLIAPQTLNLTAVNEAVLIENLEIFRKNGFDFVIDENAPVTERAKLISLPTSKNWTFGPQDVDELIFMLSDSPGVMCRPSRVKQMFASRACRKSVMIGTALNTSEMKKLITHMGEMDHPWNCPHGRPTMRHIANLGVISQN

Broadly, the Kd is the equilibrium constant for the complex coming apart. Low readings indicate higher affinity, high ones lower affinity. The molecule FAN1 MIM 12-mer peptide (wt) returned a Kd in assay [1] of 3200 nM.

On to FAN1 MIP 8-mer peptide (wt), for which the Kd in assay [1] is 2800 nM. The Kd values of the last two molecules are within 1.5-fold of each other.

In the case of “FAN1-derived 42-mer peptide containing MIP and MIM (wt)”, the Kd in assay [1] stood at 70 nM.

B1: GST-FAN1 (amino acids 118 to 177) (domain or fragment)
chain: KREVKQKISPYFKSNDVVCKNQDELRNRSVKVICLGSLASKLSRKYVKAKKSIDKDEEFA
Consider B1, for which, in assay [2], the binding result is reported as “binds”.
